Patent publication US6518397B1, “Pharmaceuticals for modulating hormone responsiveness” (priority 1995, dated 2003)
Entries after “also recorded” stand apart in the source; their conditions may differ. Where no end group is shown, it is not given here.

T1: DNA binding domain of recombinant rat androgen receptor (AR) / calreticulin (p60) (Homo sapiens, UniProt P27797)
T1 construct: endogenous in cells
T1 sequence (P27797 18-417): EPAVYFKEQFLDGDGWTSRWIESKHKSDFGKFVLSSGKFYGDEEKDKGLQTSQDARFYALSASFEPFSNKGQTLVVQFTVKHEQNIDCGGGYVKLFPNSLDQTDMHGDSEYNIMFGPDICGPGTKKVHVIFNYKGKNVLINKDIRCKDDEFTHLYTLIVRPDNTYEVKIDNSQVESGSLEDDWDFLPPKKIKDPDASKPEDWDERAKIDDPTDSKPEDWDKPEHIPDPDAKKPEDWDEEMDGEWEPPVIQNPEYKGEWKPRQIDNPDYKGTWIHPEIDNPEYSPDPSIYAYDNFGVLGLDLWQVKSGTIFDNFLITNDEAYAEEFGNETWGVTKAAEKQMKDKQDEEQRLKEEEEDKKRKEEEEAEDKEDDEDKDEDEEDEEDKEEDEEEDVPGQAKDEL

T2: calreticulin as used in the gel mobility shift assays of Examples 7 and 15 (Homo sapiens (Human), UniProt P27797 18-417)
T2 construct: Could be m1 or m2
T2 sequence: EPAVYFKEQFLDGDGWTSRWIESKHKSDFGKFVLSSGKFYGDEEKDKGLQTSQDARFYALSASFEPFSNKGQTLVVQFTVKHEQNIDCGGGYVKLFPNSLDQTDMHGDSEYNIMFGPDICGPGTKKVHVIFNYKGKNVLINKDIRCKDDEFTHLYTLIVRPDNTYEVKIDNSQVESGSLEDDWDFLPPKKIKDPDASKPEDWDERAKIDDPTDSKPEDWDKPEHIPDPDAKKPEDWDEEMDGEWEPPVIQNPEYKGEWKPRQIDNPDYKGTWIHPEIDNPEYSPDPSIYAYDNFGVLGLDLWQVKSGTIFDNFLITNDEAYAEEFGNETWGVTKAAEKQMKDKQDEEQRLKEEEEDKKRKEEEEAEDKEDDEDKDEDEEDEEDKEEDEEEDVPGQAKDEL

B1: KLRFGFK scrambled peptide (peptide)
peptide: KLRFGFK
notes: Control
B2: KGFFKR peptide (peptide)
peptide: KGFFKR
notes: also called 409
B3: KVFFKR peptide (peptide)
peptide: KVFFKR
notes: also called 285; androgen receptor derived peptide
B4: KLGFFKR synthetic peptide (peptide)
peptide: KLGFFKR
notes: Used free in solution and immobilised on sepharose; also called KLGFFKR-sepharose
B5: KLGRFKR peptide (peptide)
peptide: KLGRFKR
B6: GLGFFKR peptide (peptide)
peptide: GLGFFKR
B7: KLGFFKG peptide (peptide)
peptide: KLGFFKG
B8: KLGFRKR peptide (peptide)
peptide: KLGFRKR
B9: KLGFFGR peptide (peptide)
peptide: KLGFFGR
B10: KLDFFKR peptide (peptide)
peptide: KLDFFKR

How the values were obtained:
[1] = target: T1, DNA binding domain of recombinant rat androgen receptor (AR) / calreticulin (p60); assay: Gel mobility shift (gel retardation) assay: calreticulin (p60) inhibition of AR-ARE binding and its reversal by peptides/antibody; details: for Effectiveness of binding to calreticulin, in words: effect of substitution in KXFFX1R sequence, band shift; for Reversal of GST-calreticulin (recombinant calreticulin) inhibition of AR-ARE interaction: calreticulin 2 μg, peptides at 50-fold molar excess; for Reversal of p60 (calreticulin) inhibition of AR-ARE binding: peptide, antibody or IgG pre-incubated with p60
Description: To determine whether p60 (calreticulin) could directly modulate the binding of nuclear hormone receptors to DNA via the KXFFX^1R [SEQ ID NO:1] sequence, the interaction of the DNA binding domain of recombinant androgen receptor with its hormone responsive element was analyzed by carrying out gel mobility shift assays.
(§1) As described in Rennie et al., 1993, DNA binding domain of recombinant rat androgen receptor was prepared as a GST-fusion protein using the pGEX-3X vector and purified by glutathione-agarose affinity chromatography. p60 (calreticulin) was purified by affinity chromatography on KLGFFKR-sepharose [SEQ ID NO:7], followed by gel electrophoresis as described in detail in Rojiani et al., 1991. […] Recombinant calreticulin (GST-fusion protein) was prepared as described by Baksh and Michalak, 1991. Gel retardation assays were carried out as described by Rennie et al., 1993. To analyze the effect of p60, or recombinant calreticulin, on receptor-DNA binding activity, the AR was pre-incubated with p60 for 30 min at 4° C. To analyze the effects of synthetic peptides, anti-calreticulin antibody, and non-immune IgG on p60 inhibition of AR-ARE binding, the peptide, antibody or IgG were pre-incubated with p60 for 30 min at 4° C. The androgen receptor preparation was then added to these mixtures and further incubated for 30 min at 4° C.
Affinity purified DNA binding domain of the recombinant rat androgen receptor (AR) was pre-incubated with or without the indicated concentrations of purified p60 at 4° C. for 30 min. After this pre-incubation the reaction mixtures were incubated with ^32P-labeled 26 base pair ARE (Rennie et al., 1993) (androgen response element), and analyzed by gel retardation assay. The sequence of the ARE used was [SEQ ID NO:28]:
Amino acids in the KXFFX^1R [SEQ ID NO: 1] sequence were modified. Androgen receptor and calreticulin were incubated in the presence of the modified peptides and allowed to interact with an oligonucleotide containing the androgen response element (the method of this assay is described in Example 3). The interaction was analyzed by gel mobility shaft assay (FIGS. 5A-5C).

[2] = test system: retinoic acid receptor mediated gene transcription (bRARE luciferase) in P19 cells; assay: RARE-driven luciferase reporter in P19 cells after peptide preincubation; format: cell-based, mouse; details: for Luciferase × 10^6: P19 cells, 10^-7 retinoic acid
Description: In order to test whether a peptide based on the calreticulin-binding KXGFFKR [SEQ ID NO:30] sequence modulates retinoic acid induced gene transcription in live cells, the p19 cells were transfected with a reporter vector consisting of a retinoic acid response element fused to the luciferase gene.
Cell culture conditions: Mouse embryonic carcinoma (P19) cell, grown in 60 mm dishes in 7.5% donor calf serum, 2.5% fetal calf serum alpha MEM (Gibco/BRL) were treated with the peptides KLGFFKR [SEQ ID NO:7] or KLRFGFK [SEQ ID NO:29] for three hours or overnight for 20 hours at 37° C., 5% CO2. With few exceptions, KLXFFKR [SEQ ID NO:31] is the peptide sequence specific within the binding domain of all steroid receptors. KLRFGFK [SEQ ID NO:29] is the scrambled peptide of the above sequence. Subsequently each plate was washed four times with serum free alpha MEM to remove excess peptides and replenished with fresh serum containing media. Cells were then transfected by standard calcium phosphate precipitation method (Current Protocols in Molecular Biology 9:1) with 1 microgram bRARE in pTKluc, 1.5 microgram pRSV bgal, 3 microgram pKS (carrier) per 60 mm dish. Following a 16 hour incubation at 37° C. 5% CO2, each plate was washed two times with serum free alphaMEM and replenished with serum containing media supplement with […] retinoic acid (Sigma R2625) and 800 microgram/ml G418 (Gibco 1181-031). Following another 24 hours incubation cells were washed three times with PBS and each 60 mm dish of cells was lysed in 100 microliters of 1 % triton X100, 100 mM KPO4 pH7.8, 1 mM DTT. Cell lysates were stored at −70° C. Prior to luciferase/bgal assays, cell debris were spun out on an Eppendorf microfuge (5415C) at 4° C. full speed for 20 minutes.
Luciferase assay: All reagents were equilibrated to room temperature and each sample was assayed independently. Ten microliters of cell lysate was incubated with 50 microliters of luciferase reagent (Promega E1483) in an Eppendorf tube. Thirty seconds later, the sample was immediately counted in a Beckman scintillation counter (LS6000IC) for one minute using an open window. Standards in the range of 0.001 nanogram to 1.0 nanogram was used to establish the linearity of the assay.
Beta-gal assay: Assay was done in a microtitre plate (Linbro 76-232-05). Ten microliters of cell lysate were mixed with 90 microliters of bgal reagent in 88 mM phosphate buffer, 11 mM KCl, 1 mM MgCl2, 55 mM 2ME, 4.4 mM chlorophenol red b-D-galactopyranoside (BMC 884-308). Incubation period varied from 30 minutes to 2 hours at 37° C. Results were read at 570 nm in an ELISA reader (Dynatech MR5000).

[3] = target: T2, calreticulin as used in the gel …; assay: gel mobility shift, PhosphorImager; reversal of calreticulin inhibition of RAR/RXR binding to its DNA response element; competitor RAR/RXR
From the text: (§2) This Table relates to the retinoic acid receptors (RAR/RXR) and the androgen receptor (AR). […] The data was quantified using a Phosphormager (Molecular Dynamics).

[4] = target: T2, calreticulin as used in the gel …; assay: gel mobility shift, PhosphorImager; reversal of calreticulin inhibition of AR binding to its DNA response element; competitor AR
Description: as §1, with “To analyze the effects of synthetic peptides, anti-calreticulin antibody, and non-immune IgG on p60 inhibition of AR-ARE binding, the peptide, antibody or IgG were pre-incubated with p60 for 30 min at 4° C.” left out
as §2

[5] = target: T2, calreticulin as used in the gel …; assay: gel mobility shift; reversal of calreticulin inhibition of receptor-DNA binding; competitor RXR/RXR, reference RAR/RXR
Description: (§3) Example 7 Peptides Having Differential Specificities for Disrupting Different Hormone Receptor-Calreticulin Interactions To identify peptides having different specificities, we utilized gel mobility shift assays (see Example 3) in which known concentrations of purified recombinant androgen receptor, estrogen receptor, retinoic acid receptors (RAR/RXR and RXR/RXR) (Shago et al., 1994) and vitamin D receptor (Xu et al., 1993) were incubated with known concentrations of either recombinant calreticulin, or calreticulin purified by affinity chromatography on a KLGFFKR affinity column [SEQ ID NO:7] (see Example 3) in the presence of the respective ^32P-labelled DNA response elements and known concentrations of synthetic peptides based on the KXFFX[1]R [SEQ ID NO:1] sequence. In addition to the linear peptides, some peptides were cyclized by adding cysteine residues at either ends.

[6] = target: T2, calreticulin as used in the gel …; assay: gel mobility shift; reversal of calreticulin inhibition of receptor-DNA binding; competitor VDR/RXR, reference RAR/RXR
Description: as §3

[7] = overnight preincubation with 10 micromolar peptide
[8] = overnight preincubation with 50 micromolar peptide
[9] = overnight preincubation with 100 micromolar peptide

Molecule	Effectiveness of binding to calreticulin, in words [1]	% Reversal [3] [%]	% Reversal [4] [%]	further results
KGFFGR [compound 416]	decreased the ability of peptides to bind calreticulin			
KGFFKG [compound 417]	decreased the ability of peptides to bind calreticulin			
KGFRKR [compound 415]	increased the effectiveness of binding to calreticulin			
KGFRRR [compound 421]	increased the effectiveness of binding to calreticulin			
KGRFKR [compound 414]	increased the effectiveness of binding to calreticulin			
KGRFRR [compound 420]	increased the effectiveness of binding to calreticulin			
KLGFFKR				Corrected values luc/bgal [2, 7]: 32.91; Luciferase × 10^6 [2, 7]: 13 × 10^6; Corrected values luc/bgal [2, 8]: 45.15; Luciferase × 10^6 [2, 8]: 20 × 10^6; Luciferase × 10^6 [2, 9]: 28 × 10^6; Luciferase activity (retinoic acid receptor mediated gene transcription), in words ([2]; pre-incubation of P19 cells with peptide): dose-dependent increase in luciferase activity; Reversal of GST-calreticulin (recombinant calreticulin) inhibition of AR-ARE interaction [1]: Reversal of this inhibition; Reversal of p60 (calreticulin) inhibition of AR-ARE binding [1]: reversed; Effect by itself on the receptor-DNA interaction ([1]; without p60, data not shown): neither KLGFFKR peptide [SEQ ID NO:7], anti-calreticulin antibody, nor non-immune IgG by themselves had any effect
KLRFGFK [reference compound]				Corrected values luc/bgal [2, 7]: 42.04; Luciferase × 10^6 [2, 7]: 14 × 10^6; Corrected values luc/bgal [2, 8]: 41.34; Luciferase × 10^6 [2, 8]: 16 × 10^6; Corrected values luc/bgal [2, 9]: 32.26; Luciferase × 10^6 [2, 9]: 14 × 10^6; Reversal of p60 (calreticulin) inhibition of AR-ARE binding [1]: much less effective
KVAFKR (not fully specified) [compound 427]	decreased the ability of peptides to bind calreticulin			
KVFAKR [compound 429]	decreased the ability of peptides to bind calreticulin			
KVFFKA [compound 430]	decreased the ability of peptides to bind calreticulin			
KVFFKR [compound 285]				Reversal of GST-calreticulin (recombinant calreticulin) inhibition of AR-ARE interaction [1]: can also reverse the inhibition; also recorded: reversed; Reversal of p60 (calreticulin) inhibition of AR-ARE binding [1]: reversed
bovine serum albumin: other protein of similar size, used as control [reference compound]				Effect of protein on AR-ARE (receptor-DNA) complex formation ([1]; protein pre-incubated with AR 30 min at 4° C.): did not have any effect on the nuclear receptor-DNA interaction
B1		34		
B2		100		
B3			100	
B4		100	62	fold potency against RXR/RXR compared to RAR/RXR [5]: 4 fold; fold potency against VDR/RXR compared to RAR/RXR [6]: 10 fold
B5		24	10	
B6		45	100	
B7		22	63	
B8		20	6	
B9		65	85	
B10		73	0	
